Several values for one entry are separate records, joined by “and”; a condition that tells them apart may be missing. Equal values may be shown once. No end group written: not given here.

Test in all cases: fluorescence polarisation; fluorescence anisotropy; 1 nM FlAsH-labeled His6-SUMO-yUfd1 peptide, His6-yNpl4^113–580 in two-fold dilution series; 25 °C; 50 mM Tris-HCl pH 8.0, 100 mM NaCl, 5 mM β-mercaptoethanol, 0.1 g/L BSA
Holding throughout (settings): both partners purified
On the technique in general: Fluorescence polarisation rises when a labelled molecule tumbles more slowly, as on binding a larger partner.

The target of one test is T1, His6-yNpl4^113–580 (Saccharomyces cerevisiae, UniProt P33755 113-580).
T1 construct: codon-optimized synthetic cDNA; also called WT; WT #1; source: E. coli Rosetta (DE3), purified (Ni-NTA, Resource Q); also in lysate, mixed with cells expressing GST-yUfd1 for co-purification; not shown: His6, N-terminal, kept
T1 sequence (looked up): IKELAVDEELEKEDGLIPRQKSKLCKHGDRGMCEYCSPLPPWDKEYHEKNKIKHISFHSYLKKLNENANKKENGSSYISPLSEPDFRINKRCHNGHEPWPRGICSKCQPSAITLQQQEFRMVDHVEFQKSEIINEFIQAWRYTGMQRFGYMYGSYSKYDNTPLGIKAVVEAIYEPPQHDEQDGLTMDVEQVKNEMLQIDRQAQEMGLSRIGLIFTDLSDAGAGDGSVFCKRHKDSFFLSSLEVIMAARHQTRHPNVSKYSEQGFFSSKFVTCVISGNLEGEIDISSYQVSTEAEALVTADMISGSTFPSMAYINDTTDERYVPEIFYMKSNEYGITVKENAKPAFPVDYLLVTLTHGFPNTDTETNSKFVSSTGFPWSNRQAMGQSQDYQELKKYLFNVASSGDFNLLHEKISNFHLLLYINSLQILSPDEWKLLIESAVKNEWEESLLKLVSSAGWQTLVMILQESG

The target of a further test is T2, His6-yNpl4^113–580 F419A (Saccharomyces cerevisiae, UniProt P33755 113-580, F419A).
T2 construct: also called yNpl4 F419A; source: E. coli Rosetta (DE3), purified (Ni-NTA, Resource Q); not shown: His6, N-terminal, kept
T2 sequence (looked up): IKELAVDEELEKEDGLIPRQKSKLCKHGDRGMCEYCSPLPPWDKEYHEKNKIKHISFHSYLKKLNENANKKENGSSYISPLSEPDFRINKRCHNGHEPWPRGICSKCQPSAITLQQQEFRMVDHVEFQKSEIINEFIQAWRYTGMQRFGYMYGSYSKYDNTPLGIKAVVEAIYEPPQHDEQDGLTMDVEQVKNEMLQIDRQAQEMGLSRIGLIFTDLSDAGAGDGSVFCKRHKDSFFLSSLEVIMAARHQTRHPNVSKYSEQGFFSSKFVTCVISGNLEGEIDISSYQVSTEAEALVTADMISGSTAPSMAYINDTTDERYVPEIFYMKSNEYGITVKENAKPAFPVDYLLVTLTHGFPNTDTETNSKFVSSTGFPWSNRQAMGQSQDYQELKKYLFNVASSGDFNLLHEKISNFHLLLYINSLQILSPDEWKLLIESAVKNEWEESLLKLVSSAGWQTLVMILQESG

In the next test the target is T3, His6-yNpl4^113–580 L296A (Saccharomyces cerevisiae, UniProt P33755 113-580, L296A).
T3 construct: also called yNpl4 L296A; source: E. coli Rosetta (DE3), purified (Ni-NTA, Resource Q); not shown: His6, N-terminal, kept
T3 sequence (looked up): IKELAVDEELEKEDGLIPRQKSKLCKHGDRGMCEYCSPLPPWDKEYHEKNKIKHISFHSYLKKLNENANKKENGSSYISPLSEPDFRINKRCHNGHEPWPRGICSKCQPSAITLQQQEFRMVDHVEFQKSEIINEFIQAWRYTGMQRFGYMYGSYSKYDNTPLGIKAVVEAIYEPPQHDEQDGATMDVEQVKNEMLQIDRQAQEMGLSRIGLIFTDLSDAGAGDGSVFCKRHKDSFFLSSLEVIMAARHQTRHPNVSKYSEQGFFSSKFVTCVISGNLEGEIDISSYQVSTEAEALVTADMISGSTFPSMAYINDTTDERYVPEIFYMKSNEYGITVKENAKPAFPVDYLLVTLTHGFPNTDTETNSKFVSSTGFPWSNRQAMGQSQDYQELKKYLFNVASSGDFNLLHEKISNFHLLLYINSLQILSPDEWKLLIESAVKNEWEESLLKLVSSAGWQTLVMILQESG

A further test addresses T4, His6-yNpl4^113–580 Y424A (Saccharomyces cerevisiae, UniProt P33755 113-580, Y424A).
T4 construct: also called yNpl4 Y424A; source: E. coli Rosetta (DE3), purified (Ni-NTA, Resource Q); not shown: His6, N-terminal, kept
T4 sequence (looked up): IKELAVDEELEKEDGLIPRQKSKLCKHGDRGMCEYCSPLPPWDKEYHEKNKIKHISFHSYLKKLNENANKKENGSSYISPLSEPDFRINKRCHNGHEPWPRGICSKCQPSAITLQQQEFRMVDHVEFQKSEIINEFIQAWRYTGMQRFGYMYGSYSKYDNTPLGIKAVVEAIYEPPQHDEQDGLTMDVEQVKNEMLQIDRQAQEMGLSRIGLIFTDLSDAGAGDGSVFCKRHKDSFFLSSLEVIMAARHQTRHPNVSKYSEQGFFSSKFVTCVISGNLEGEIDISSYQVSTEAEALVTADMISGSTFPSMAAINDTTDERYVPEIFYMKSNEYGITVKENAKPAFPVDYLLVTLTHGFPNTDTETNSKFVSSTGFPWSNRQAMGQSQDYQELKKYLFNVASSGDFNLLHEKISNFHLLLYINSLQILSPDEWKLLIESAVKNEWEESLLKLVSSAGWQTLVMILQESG

B1: FlAsH-labeled His6-SUMO-yUfd1^288–305-GWCCPGCC (peptide, UniProt P53044 288-305, looked up)
chain: {His6-SUMO}-EPAKLDLPEGQLFFGFPMGWCCPGCC
modifications: cysteine pairing not given here; also: FlAsH label bound to CCPGCC motif
notes: the assay methods print 280-305; also called yUfd1-FlAsH; yUfd1 WT; source: E. coli Rosetta (DE3) (pCold-SUMO), purified (Ni-NTA, Resource Q), labeled with FlAsH-EDT2; not shown: His6, N-terminal, kept; SUMO, N-terminal, kept
What is called Kd is the free concentration of one partner at which half of the binding sites on the other are occupied at equilibrium, for simple one-to-one binding. Higher therefore signals lower affinity. B1: the Kd with His6-yNpl4^113–580 is 85.7 nM and 99.4 nM; with His6-yNpl4^113–580 F419A it was 158 nM; with His6-yNpl4^113–580 L296A, 7020 nM; with His6-yNpl4^113–580 Y424A, 8450 nM.

For the origin of these results see paper PMC6910952 (Nature Communications, 2019).
